Data published in the Human Domainome abundance scans (Beltran et al. 2025).

B1: Steroid hormone receptor ERR2, residues 100 to 176; numbered along this chain, O95718 (parent)
chain: KRLCLVCGDIASGYHYGVASCEACKAFFKRTIQGNIEYSCPATNECEITKRRRKSCQACRFMKCLKVGMLKEGVRLD

Variants of: B1
Assay: abundance fitness (aPCA) (normalised: wild type 0, dead -1); higher = more abundant; growth selection in yeast, the domain comes from the species named
Conditions: Homo sapiens

Abundance fitness of substitutions, site by site:
C59: A -0.686, Q -0.891, F -0.451, S -0.887, E -0.704, L -0.873, H -0.545, P -0.688, Y -0.745, M -0.631, V -0.576, I -0.542, D -0.513, R -0.755, W -0.684, K -0.483, T -0.872, N -0.711
M62: L -0.135, D -0.057, I -0.148, P -1.05, W -0.136, E 0.086, Q 0.04, A 0.013, H -0.496, T 0.106, V -0.006, K 0.141, R -0.026, C -1.07, G -0.059, S 0.148
L65: K -0.466, I -0.289, Y -0.456, F -0.433, T -0.516, W -0.697, N -0.813, Q -0.102, E -0.132, D -0.548, M -0.175, V -0.082, G -0.534, S -0.442, H -0.797, A -0.256, P -0.753, R -0.459
V67: F -0.24, E -0.145, G -0.425, H -0.321, D -0.646, A -0.121, C -0.027
R60: Y 0.279, M 0.108, A -0.031, E -0.764, H 0.254, F 0.211, P -0.798, I -0.23, K 0.177, V -0.098, C 0.013, L 0.183, T 0.051, D -0.828, Q 0.173
K63: W -0.58, P -0.914, A -0.233, F -0.931, G -0.534, D -0.783, C -0.242, M -0.11, S -0.611, N -0.605, I -0.461, H -0.359, L -0.55, V -0.522, T -0.226, R -0.145, Y -0.982, Q -0.21, E -0.596
C64: R -0.751, E -0.561, K -0.767, A -0.301, H -1.04, L -0.826, D -1.05, S -0.396, T -0.658, P -0.747, V -0.836, I -0.478, G -0.582, M -0.273, Y -0.95, W -0.531, N -0.483, F -0.686
F61: D -1.06, W 0.125, M 0, G -0.602, T -0.759, V -0.269, S -0.509, P -1.29, R -0.487, E -0.892, C -1.06, A -0.444, N -0.541, I -0.074, K -0.266, Q -0.257
K66: R -0.019, D -0.103, P -1.27, Q -0.03, G -0.256, W -0.559, C -0.354, L -0.436, Y -0.508, M 0.074, F -0.585, T 0.162, S -0.011, E -0.073, V -0.241, H -0.168
Q57: P -0.066, T -0.325, V -0.213, S -0.125, W -0.15, R -0.17
A58: R -0.076, K -0.089, D -0.334, Q -0.145, L -0.44, N 0.044, E -0.235, C -0.346, S -0.33, M -0.227, W -0.308, V -0.772, P -0.61, G -0.205, Y -0.347, H -0.445, F -0.377, T -0.518
